Molecular target: CXCR2-4A/IL (S342A/S346A/S347A/S348A and I323A/L324A) (human)
Test: co-IP

Sequence of β-arrestin1 (P49407 whole entry): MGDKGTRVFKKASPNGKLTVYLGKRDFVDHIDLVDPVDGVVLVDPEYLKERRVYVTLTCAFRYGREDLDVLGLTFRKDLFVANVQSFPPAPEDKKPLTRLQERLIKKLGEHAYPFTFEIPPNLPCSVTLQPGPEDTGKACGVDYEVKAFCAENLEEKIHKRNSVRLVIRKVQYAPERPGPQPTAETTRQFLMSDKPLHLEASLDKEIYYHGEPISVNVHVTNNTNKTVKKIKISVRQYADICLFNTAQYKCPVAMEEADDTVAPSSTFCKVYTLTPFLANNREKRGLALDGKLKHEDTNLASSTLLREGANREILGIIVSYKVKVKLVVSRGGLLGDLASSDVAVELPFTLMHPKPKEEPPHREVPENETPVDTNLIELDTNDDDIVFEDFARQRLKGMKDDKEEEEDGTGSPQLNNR

reduction of binding (co-precipitated β-arrestin1): 90%
Substance: β-arrestin1 (from UniProt P49407 1-418) (natural protein)
